Test results published in patent US6784337.

Tests used:
Papain = Papain (UniProt P00784); experiment: cell-based or functional assay
trypsin = experiment: cell-based or functional assay

UniProt P00784, sequence (P00784 134-345 limits assumed): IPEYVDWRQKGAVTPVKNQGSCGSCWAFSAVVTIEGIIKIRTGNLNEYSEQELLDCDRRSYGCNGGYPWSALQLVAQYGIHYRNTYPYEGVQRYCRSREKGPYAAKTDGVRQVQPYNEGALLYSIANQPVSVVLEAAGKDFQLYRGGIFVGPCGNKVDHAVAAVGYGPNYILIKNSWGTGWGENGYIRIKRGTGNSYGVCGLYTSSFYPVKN

inhibition of papain activity (relative inhibition assay, substrate N-Cbz-Phe-Arg-7-amido-4-methylcoumarin) (Papain)	inhibition of trypsin activity (relative inhibition assay, substrate N-Cbz-Phe-Arg-7-amido-4-methylcoumarin) (trypsin)	Substance
95%	95%	Oc-IΔD86/go/CpTI fusion protein (from UniProt P09229 39-140)
95%	95%	Oc-IΔD86/PsMTa/CpTI fusion protein (products of the construct) (from UniProt P09229 39-140)
